Measured values: article PMC11921806, “Structural characterization and inhibition of the interaction between ch-TOG and TACC3” (The Journal of Cell Biology, 2025)
Blank lines part the entries; values can stand above or below the binder they belong to.

Experiments:
TACC3 629–838 [1] = target: T1, TACC3 629–838 (human, UniProt Q9Y6A5 629-838); assay: MST; NHS Red labelled TACC domain at 600 nM, H5 peptide 0–400 μM; 20 mM sodium phosphate, 50 mM NaCl, 2 mM DTT, 0.05% Tween, 0.02% NaN3; one-site specific binding model; conditions: both partners purified
T1 construct: human TACC3, TACC domain, residues 629-838; For MST the protein was fluorescently labelled via NHS coupling (NHS Red labelling kit, Nanotemper); Construct from Hood et al., 2013; also called TACC3 TACC domain; TACC3 TD; not shown: His, N-terminal, cleaved; NusA, N-terminal, cleaved

TACC3 629–838 [2] = target: T1, TACC3 629–838; assay: pull-down; in vitro co-precipitation; His-NusA-ch-TOG 1817–1957 constructs immobilised on Nickel Sepharose, TACC3 629–838 added; binding of TACC3 resolved by western blot; conditions: both partners purified
[3] = target: the molecule itself; assay: EPR (CW EPR and DEER); MTSL-labelled TACC3 proteins, 50 μM with 30% glycerol; CW EPR at 120 K, four-pulse DEER at 50 K
ch-TOG 1517–1957 = target: T2, ch-TOG 1517–1957 (human, UniProt Q14008 1517-1957); assay: pull-down; in vitro co-precipitation; C-terminal His-tagged Affimers immobilised on Nickel Sepharose, incubated with TACC3 629–838 ∆699–765, ch-TOG 1517–1957 added; conditions: both partners purified
T2 construct: Construct from Hood et al., 2013; also called C-terminal domain of ch-TOG; not shown: His, N-terminal, cleaved; NusA, N-terminal, cleaved

B2: His-NusA-ch-TOG 1817–1957 (domain or fragment)
chain: ASRIDEKSSKAKVNDFLAEIFKKIGSKENTKEGLAELYEYKKKYSDADIEPFLKNSSQFFQSYVERGLRVIEMEREGKGRISTSTGISPQMEVTCVPTPTSTVSSIGNTNGEEVGPSVYLERLKILRQRCGLDNTKQDDRP
notes: not shown: His, N-terminal, kept; NusA, N-terminal, kept
- binding result (TACC3 629–838 [2]): binds

B3: TACC3 MTSL-C662 (domain or fragment)
chain: not shown
modifications: MTSL spin label on C662
notes: human TACC3 residues 629-838 with C749A and C828A; also called TACC3 629–838 C749A, C828A; source: E. coli BL21(DE3)RIL, purified, MTSL-labelled, SEC; not shown: His, N-terminal, cleaved; NusA, N-terminal, cleaved
- binding result [3]: binds

Second part, the binder after the results:

- Kd (TACC3 629–838 [1]): 17.3 µM
B1: synthetic ch-TOG H5 peptide (residues 1929–1947) (peptide)
peptide: EVGPSVYLERLKILRQRCG
notes: human ch-TOG/CKAP5 helix H5, residues 1929-1947; source: synthetic peptide

- binding result (ch-TOG 1517–1957): binds
B4: TACC3 629–838 ∆699–765 (domain or fragment)
chain: not shown
notes: human TACC3 residues 629-838 with residues 699-765 deleted; A version with a C-terminal biotinylated Avi-tag was used for Affimer panning and ELISA; also called TACC3 TD∆; not shown: His, N-terminal, cleaved; NusA, N-terminal, cleaved
